The labels stand for the following.
B1: C-10 peptide (peptide)
peptide: GTINVHDVETQFNQYKTEAASRYNLTISDVSVSDV
notes: also called PSMGFR C-10; PSMGFR minus 10 amino acids from the C-terminus

Assay [1] has as its target T1, NME7AB (Homo sapiens (Human), UniProt Q9Y5B8 92-376).
T1 construct: NME7A in the text appears to be NME7AB; also called NM23-H7; NME7A
T1 sequence: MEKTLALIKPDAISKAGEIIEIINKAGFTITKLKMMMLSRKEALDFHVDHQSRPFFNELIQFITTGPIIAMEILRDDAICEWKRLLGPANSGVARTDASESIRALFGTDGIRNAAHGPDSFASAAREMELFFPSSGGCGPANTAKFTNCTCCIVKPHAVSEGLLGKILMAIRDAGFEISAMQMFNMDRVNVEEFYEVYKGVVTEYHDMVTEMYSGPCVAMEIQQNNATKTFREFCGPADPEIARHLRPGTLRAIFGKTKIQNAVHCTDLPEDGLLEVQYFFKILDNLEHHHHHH
Description: ELISA, peptide on plate (FIG. 2A). Here is the method:
(§1) FIGS. 2A-2I show results of ELISA assays. MUC1* peptides PSMGFR, PSMGFR minus 10 amino acids from the N-terminus aka N-10, or PSMGFR minus 10 amino acids from the C-terminus, aka C-10 are immobilized on the plate and the following are assayed for binding: NME7-AB (FIG. 2A), MNC2 monoclonal antibody (FIG. 2B), MNE6 monoclonal antibody (FIG. 2C), or dimeric NME1 (FIG. 2D). […] MUC1* peptides PSMGFR minus 10 amino acids from the N-terminus aka N-10, or PSMGFR minus 10 amino acids from the C-terminus, aka C-10, are immobilized on the plate and the following are assayed for binding: MNC3 (FIG. 2E) and MNC8 (FIG. 2F).

Assay [2] concerns the target T2, dimeric NME1 (Homo sapiens (Human), UniProt P15531 1-152, limits assumed).
T2 construct: also called NM23-H1 dimers; dimeric NM23-H1
Description: ELISA, peptide on plate (FIG. 2D). Here is the method:
as §1
On the technique in general: An ELISA detects its analyte on a solid surface through an enzyme-linked reagent.

Assay [3] addresses B1. The assay can be described thus: peptide ELISA.
For assay [4], the target named is T3, MUC1* expressed on HCT-116 cells transfected with MUC1* (extra cellular domain is just the PSMGFR sequence) (Homo sapiens (Human), UniProt P15941 1110-1255).
T3 construct: In Western blot rows the same protein stood denatured in cell lysate; also called HCT-MUC1*; HCT-FLR
T3 sequence: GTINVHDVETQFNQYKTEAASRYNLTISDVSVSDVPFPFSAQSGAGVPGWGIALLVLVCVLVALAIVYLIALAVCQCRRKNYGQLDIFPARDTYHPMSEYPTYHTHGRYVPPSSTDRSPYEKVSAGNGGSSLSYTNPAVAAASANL
The assay can be described thus: flow cytometry (FIG. 4D-4F). (In general: Flow cytometry measures light scatter and fluorescence of single cells or particles in a stream.)

Assay [5] concerns the target T4, PSMGFR peptide.
T4 construct: also called MUC1* peptide
T4 peptide: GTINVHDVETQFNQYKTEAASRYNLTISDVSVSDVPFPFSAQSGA
Description: ELISA, peptide on plate (FIG. 2C).

Assay [6] concerns the target T5, N+20/C-27 peptide.
T5 peptide: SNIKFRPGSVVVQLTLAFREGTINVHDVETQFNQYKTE
Description: ELISA, peptide on plate (FIG. 63). Here is the method:
(§2) ELISA assays were performed to determine if, in addition to recognizing their immunizing peptide, they recognized PSMGFR, N-10 or C-10. In addition, they were tested for their ability to bind to N+20/C-27, N+9/C-9. We first did the ELISA assay on our set of reference antibodies, MNC2, MNE6, which we know are cancer-specific plus MNC3, which we know recognizes stem cells and progenitor cells (FIG. 63A-63B). None of the reference antibodies bound to the N+20/C-27 peptide. MNC2 and MNE6 cannot bind to PSMGFR peptides with 27, 10 or 9 C-terminal deletions, however, MNC3 binds to C-10 and to N+9/C-9 peptides.

For assay [7], the target named is T6, N+9/C-9 peptide.
T6 peptide: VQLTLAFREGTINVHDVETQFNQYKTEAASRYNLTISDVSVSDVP
The assay can be described thus: ELISA, peptide on plate (FIG. 63). Here is the method: as §2

Assay [8] concerns the target T7, N-10 peptide.
T7 construct: also called PSMGFR N-10; PSMGFR minus 10 amino acids from the N-terminus
T7 peptide: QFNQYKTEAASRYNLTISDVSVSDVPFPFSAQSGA
Description: ELISA, peptide on plate (FIG. 2B-2C).

For assay [9], the target named is T4, PSMGFR peptide. The assay can be described thus: ELISA, peptide on plate.
Assay [10] has as its target T5, N+20/C-27 peptide. The assay can be described thus: ELISA, peptide on plate (FIG. 66).
Assay [11] deals with T6, N+9/C-9 peptide. Description: ELISA, peptide on plate (FIG. 66).
In assay [12] the target is T7, N-10 peptide. The assay can be described thus: ELISA, peptide on plate (FIG. 69).
The target in assay [13] is B1. The assay can be described thus: ELISA, peptide on plate (FIG. 69).
The target of assay [14] is T8, N-19 peptide.
T8 peptide: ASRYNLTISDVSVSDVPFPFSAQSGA
Description: ELISA, peptide on plate (FIG. 69).

For assay [15], the target named is T9, N-26 peptide.
T9 peptide: ISDVSVSDVPFPFSAQSGA
Description: ELISA, peptide on plate (FIG. 69).

In assay [16] the target is T10, N-30 peptide.
T10 peptide: SVSDVPFPFSAQSGA
Description: ELISA, peptide on plate (FIG. 69).

Assay [17] deals with T11, N-10/C-5 peptide.
T11 peptide: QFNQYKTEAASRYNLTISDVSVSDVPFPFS
Description: ELISA, peptide on plate (FIG. 69).

Assay [18] has as its target T12, N-19/C-5 peptide.
T12 peptide: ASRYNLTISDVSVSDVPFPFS
Description: ELISA, peptide on plate (FIG. 69).

Assay [19] deals with T3, MUC1* expressed on HCT-116 cells …. Description: denaturing Western blot of cell lysates, linear epitope test (FIG. 74). Here is the method:
Antibodies were tested to determine whether they recognize a linear or a conformational epitope. Only antibodies that recognize a linear epitope work in Western blots when using denaturing gels. […] The antibodies tested for comparison are MNC2 and MNE6, which were known to only recognize a conformational epitope, SDIX which is a polyclonal antibody raised against PSMGFR and VU4H5, which is a commercially available monoclonal antibody that recognizes the tandem repeats of full-length MUC1 (FIG. 71A-71D). […] The SDIX polyclonal antibody recognizes HCT-MUC1* but not full-length MUC1 and VU4H5 only recognizes full-length MUC1. These same antibodies were also tested for their ability to work in Western blots of two breast cancer cell lines 1500, aka Zr-75-1, and T47D cells and show the same binding pattern (FIG. 71E-71H).
Antibodies that were raised against the PSMGFR peptide were tested the same way in Western blots (FIG. 72A-72P). […] Antibodies that were raised against the N+20/C-27 peptide were tested the same way in Western blots (FIG. 73A-73J). […] Antibodies 1E4 and 45C11 may recognize a conformational epitope. Antibodies that were raised against the N+9/C-9 peptide were tested the same way in Western blots (FIG. 74A-74H). […] These antibodies may recognize a conformational epitope.

The results in this text go back to US20240390418A1 (MINERVA BIOTECHNOLOGIES, published 2024).

T2 sequence (P15531 whole entry): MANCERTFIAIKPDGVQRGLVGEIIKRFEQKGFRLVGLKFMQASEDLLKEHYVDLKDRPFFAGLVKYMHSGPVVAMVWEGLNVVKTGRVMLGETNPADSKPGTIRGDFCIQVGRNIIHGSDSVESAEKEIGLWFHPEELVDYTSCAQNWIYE

On to B1, for which the binding result in assay [1] and in assay [2] was “no binding” throughout.

B2: mouse monoclonal antibody MNE6 (antibody, V domains shown)
VH: EVKVVESGGDLVKPGGSLKLSCVVSGFTFSRYGMSWVRQTPGKRLEWVATISGGGTYIYYPDSVKGRFTISRDNAKNTLYLQMSSLKSEDTAMYHCTRDNYGRNYDYGMDYWGQGTSVTVSS
VL: QIVLTQSPAIMSASPGEEVTLTCSATSSVSYIHWFQQRPGTSPKLWIYSTSNLASGVPVRFSGSGYGTSYSLTISRMEAEDAATYYCQQRSSSPFTFGSGTKLEIK
notes: Mouse monoclonal raised against the PSMGFR peptide; also called Min-E6
As to B2, the binding result in [3] was “no binding”; in [4], “binds”; in assay [5], “binds”; in [6], “no binding”; in assay [7], “no binding (tested: 10 ug/mL or 1 ug/mL)”; in [8], “binds”.

B3: monoclonal antibody 8A9 (antibody, V domains shown)
VH: EVELVESGGGLVQPGGSLRLSCATSGFTFTDHYMSWVRQPPGKALEWLGFIRNKANGYTTEYSASVKGRFTISRDNSQSILYLQMKTLRTEDSATYYCARPSDWDSWFAYWGQGTLVTVSA
VL: DVLMTQTPLSLPVSLGDQASISCRSSQSIVHSNGNTYLDWYLQKPGQSPKLLIYRVSNRFSGVPDRFSGSGSGTDFTLKISRVEAEDLGLYYCFQGSHVPWAFGGGTKLEIK
notes: Raised against the N+9/C-9 peptide; also called N+9/C-9 antibody 8A9
Take B3: the binding result in [9] was “no binding”; in assay [10], “no binding”; in assay [11], “binds”; in assay [12], “no binding”; in [13] it was “no binding”; in assay [14] it was “no binding”. Also, the binding result in assay [15], in [16], in assay [17], in assay [18] and in [19] was “no binding” in each case.
